Changes are numbered by the printed parent chain. In names and notes the source's numbering stands.
Columns and labels:
[1] = target: the molecule itself; experiment: cryo-EM structure; protein in digitonin (20 mM HEPES pH 7.4, 150 mM NaCl, 2 mM EGTA, 0.1% digitonin), 1.5-2 mg/ml; Ca2+-free, or with 2 mM free CaCl2 and 0.01 mM diC8-PI(4,5)P2; homodimer
[2] = target: the molecule itself; experiment: cryo-EM structure; protein in GDN (0.03% in the SEC buffer), Ca2+-bound; homodimer

B1: murine TMEM16F mutant F518H (natural protein, UniProt Q6P9J9 1-911, looked up)
chain: MQMMTRKVLLNMELEEDDDEDGDIVLENFDQTIVCPTFGSLENQQDFRTPEFEEFNGKPDSLFFTDGQRRIDFILVYEDESKKENNKKGTNEKQKRKRQAYESNLICHGLQLEATRSVSDDKLVFVKVHAPWEVLCTYAEIMHIKLPLKPNDLKTRSPFGNLNWFTKVLRVNESVIKPEQEFFTAPFEKSRMNDFYILDRDSFFNPATRSRIVYFILSRVKYQVMNNVNKFGINRLVSSGIYKAAFPLHDCRFNYESEDISCPSERYLLYREWAHPRSIYKKQPLDLIRKYYGEKIGIYFAWLGYYTQMLLLAAVVGVACFLYGYLDQDNCTWSKEVCDPDIGGQILMCPQCDRLCPFWRLNITCESSKKLCIFDSFGTLIFAVFMGVWVTLFLEFWKRRQAELEYEWDTVELQQEEQARPEYEAQCNHVVINEITQEEERIPFTTCGKCIRVTLCASAVFFWILLIIASVIGIIVYRLSVFIVFSTTLPKNPNGTDPIQKYLTPQMATSITASIISHIIIMILNTIYEKVAIMITNFELPRTQTDYENSLTMKMFLFQFVNYYSSCFYIAFFKGKFVGYPGDPVYLLGKYRSEECDPGGCLLELTTQLTIIMGGKAIWNNIQEVLLPWVMNLIGRYKRVSGSEKITPRWEQDYHLQPMGKLGLFYEYLEMIIQFGFVTLFVASFPLAPLLALVNNILEIRVDAWKLTTQFRRMVPEKAQDIGAWQPIMQGIAILAVVTNAMIIAFTSDMIPRLVYYWSFSIPPYGDHTYYTMDGYINNTLSVFNITDFKNTDKENPYIGLGNYTLCRYRDFRNPPGHPQEYKHNIYYWHVIAAKLAFIIVMEHIIYSVKFFISYAIPDVSKITKSKIKREKYLTQKLLHESHLKDLTKNMGIIAERIGGTVDNSVRPKLE
notes: TMEM16F (anoctamin-6), murine; point mutant F518H; A 3C recognition site stands between TMEM16F and the C-terminal Myc and SBP tags; no cleavage is described; also called F518H^noCa; F518H^Ca; source: TMEM16F KO cells in suspension culture, transient transfection (PEI MAX); purified (Strep-tactin, SEC on Superose 6) in digitonin, or reconstituted into MSP 2N2 nanodiscs (3 POPC:1 POPG)
B1: binds [1].

B2: murine TMEM16F mutant N562A (natural protein, UniProt Q6P9J9 1-911, looked up)
chain: B1 chain with H518F, N562A
notes: TMEM16F (anoctamin-6), murine; point mutant N562A; A 3C recognition site stands between TMEM16F and the C-terminal Myc and SBP tags; no cleavage is described; also called N562A^Ca; N562A^Cacc; source: TMEM16F KO cells in suspension culture, transient transfection (PEI MAX); purified (Strep-tactin, SEC on Superose 6) in digitonin
B2: binds [1].

B3: murine TMEM16F double mutant F518A/Q623A (natural protein, UniProt Q6P9J9 1-911, looked up)
chain: B1 chain with H518A, Q623A
notes: TMEM16F (anoctamin-6), murine; double mutant F518A and Q623A; A 3C recognition site stands between TMEM16F and the C-terminal Myc and SBP tags; no cleavage is described; source: TMEM16F KO cells in suspension culture, transient transfection (PEI MAX); purified (Strep-tactin, SEC on Superose 6) in GDN
B3: binds [2].

Source: PMC9637102, “Structural basis for the activation of the lipid scramblase TMEM16F” (Nature Communications, 2022)
